Test results as given in patent publication US20240368239A1 (SL METAGEN, published 2024).

T1: human GLP-2 receptor (human, UniProt O95838 1-553)
T1 sequence (looked up): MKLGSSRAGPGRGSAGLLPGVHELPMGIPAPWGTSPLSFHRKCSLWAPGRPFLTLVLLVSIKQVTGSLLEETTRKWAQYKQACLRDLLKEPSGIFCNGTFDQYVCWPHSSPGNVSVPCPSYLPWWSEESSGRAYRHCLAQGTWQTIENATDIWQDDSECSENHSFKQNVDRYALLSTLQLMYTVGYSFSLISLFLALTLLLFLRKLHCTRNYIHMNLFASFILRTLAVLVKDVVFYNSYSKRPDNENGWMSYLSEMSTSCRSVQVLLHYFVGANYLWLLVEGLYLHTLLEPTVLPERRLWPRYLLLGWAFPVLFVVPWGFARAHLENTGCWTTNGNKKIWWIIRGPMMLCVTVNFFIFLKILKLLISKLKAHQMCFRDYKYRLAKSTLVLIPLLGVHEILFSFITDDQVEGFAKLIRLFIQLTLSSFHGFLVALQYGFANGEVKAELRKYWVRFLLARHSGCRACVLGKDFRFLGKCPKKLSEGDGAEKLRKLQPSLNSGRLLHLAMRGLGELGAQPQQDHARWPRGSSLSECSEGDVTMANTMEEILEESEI


Assays:
Test in all cases: cell-based or functional assay
GLP-1 receptor [1] = molecular target: GLP-1 receptor
human GLP-2 receptor [2] = molecular target: T1, human GLP-2 receptor
GLP-1 receptor [3] = molecular target: GLP-1 receptor; remark: listed apart in the source
human GLP-2 receptor [4] = molecular target: T1, human GLP-2 receptor; remark: listed apart in the source
GLP-1 receptor [5] = molecular target: GLP-1 receptor; remark: listed apart in the source

Binder | EC50 (pM), cAMP luciferase reporter in GLP1R_cAMP/luc cells (GLP-1 receptor [1]) [pM] | vs. GLP-1 relative activity (%) (GLP-1 receptor [1]) | EC50 (nM), cAMP-gated CNG channel membrane potential dye fluorescence (Ft/F0) in Human GLP2R ACTOne cells (human GLP-2 receptor [2]) [nM] | vs. GLP-2 relative activity (%) (human GLP-2 receptor [2]) | fold reduction of GLP-1 activity (cAMP luciferase reporter) (GLP-1 receptor [3]) [times] | EC50, GLP-2 activity (fluorescence spectroscopy) (human GLP-2 receptor [4]) [nM] | EC50, GLP-1 activity (luciferase reporter assay) (GLP-1 receptor [5]) [nM]
MG12-4 (bispecific fusion protein of Example 4) (Fc fusion, glycan linker (SEQ ID NO: 43) with N-glycosylation sites) chain 1: HGEGTFTSDVSSYLEGQAAKEFIAWLVKGGPSSGAPPPSGGGGGSGGGGSGGGGSAKNTTAPATTRNTTRGGEEKKKEKEKEEQEERTHTCPPCPSHTQPLGVFLFPPKPKDQLMISRTPEVTCVVVDVSQEDPEVQFNWYVDGVEVHNAKTKPREEQFNSTYRVVSVLTVLHQDWLNGKEYKCKVSNKGLPSSIEKTISKAKGQPREPQVYTLPPCQEEMTKNQVSLWCLVKGFYPSDIAVEWESNGQPENNYKTTPPVLDSDGSFFLYSRLTVDKSRWQEGNVFSCSVLHEALHNHYTQKSLSLSLGK chain 2: HGDGSFSDEMNTILDNLAARDFINWLIQTKITDGGGGSGGGGSGGGGSEKEKEEQEERTHTCPPCPSHTQPLGVFLFPPKPKDQLMISRTPEVTCVVVDVSQEDPEVQFNWYVDGVEVHNAKTKPREEQFNSTYRVVSVLTVLHQDWLNGKEYKCKVSNKGLPSSIEKTISKAKGQPREPQVCTLPPSQEEMTKNQVSLSCAVKGFYPSDIAVEWESNGQPENNYKTTPPVLDSDGSFFLVSRLTVDKSRWQEGNVFSCSVLHEALHNHYTQKSLSLSLGK | 66 | 39 | 1.22 | 48 | – | – | –
MG12-5 (bispecific fusion protein of Example 5) (Fc fusion) chain 1: HGEGTFTSDVSSYLEGQAAKEFIAWLVKGGPSSGAPPPSGGGGSGGGGSGGGGSEKEKEEQEERTHTCPPCPSHTQPLGVFLFPPKPKDQLMISRTPEVTCVVVDVSQEDPEVQFNWYVDGVEVHNAKTKPREEQFNSTYRVVSVLTVLHQDWLNGKEYKCKVSNKGLPSSIEKTISKAKGQPREPQVYTLPPCQEEMTKNQVSLWCLVKGFYPSDIAVEWESNGQPENNYKTTPPVLDSDGSFFLYSRLTVDKSRWQEGNVFSCSVLHEALHNHYTQKSLSLSLGK chain 2: HGDGSFSDEMNTILDNLAARDFINWLIQTKITDGGGGSGGGGSGGGGSEKEKEEQEERTHTCPPCPSHTQPLGVFLFPPKPKDQLMISRTPEVTCVVVDVSQEDPEVQFNWYVDGVEVHNAKTKPREEQFNSTYRVVSVLTVLHQDWLNGKEYKCKVSNKGLPSSIEKTISKAKGQPREPQVCTLPPSQEEMTKNQVSLSCAVKGFYPSDIAVEWESNGQPENNYKTTPPVLDSDGSFFLVSRLTVDKSRWQEGNVFSCSVLHEALHNHYTQKSLSLSLGK | 75 | 35 | 0.99 | 59 | – | – | –
MG12-1 (bispecific fusion protein of Example 1) (Fc fusion, glycan linker (SEQ ID NO: 43) with N-glycosylation sites) chain 1: HGEGTFTSDVSSYLEGQAAKEFIAWLVKGRGGGGGSGGGGSGGGGSAKNTTAPATTRNTTRGGEEKKKEKEKEEQEERTHTCPPCPSHTQPLGVFLFPPKPKDTLMISRTPEVTCVVVDVSQEDPEVQFNWYVDGVEVHNAKTKPREEQFNSTYRVVSVLTVLHQDWLNGKEYKCKVSNKGLPSSIEKTISKAKGQPREPQVYTLPPCQEEMTKNQVSLWCLVKGFYPSDIAVEWESNGQPENNYKTTPPVLDSDGSFFLYSRLTVDKSRWQEGNVFSCSVMHEALHNHYTQKSLSLSLGK chain 2: HGDGSFSDEMNTILDNLAARDFINWLIQTKITDGGGGSGGGGSGGGGSEKEKEEQEERTHTCPPCPSHTQPLGVFLFPPKPKDTLMISRTPEVTCVVVDVSQEDPEVQFNWYVDGVEVHNAKTKPREEQFNSTYRVVSVLTVLHQDWLNGKEYKCKVSNKGLPSSIEKTISKAKGQPREPQVCTLPPSQEEMTKNQVSLSCAVKGFYPSDIAVEWESNGQPENNYKTTPPVLDSDGSFFLVSRLTVDKSRWQEGNVFSCSVMHEALHNHYTQKSLSLSLGK | 304 | 9 | 1.35 | 43 | ~11 | – | –
MG12-2 (bispecific fusion protein of Example 2) (Fc fusion, glycan linker (SEQ ID NO: 43) with N-glycosylation sites) chain 1: HGDGSFSDEMNTILDNLAARDFINWLIQTKITDGGGGSGGGGSGGGGSAKNTTAPATTRNTTRGGEEKKKEKEKEEQEERTHTCPPCPSHTQPLGVFLFPPKPKDTLMISRTPEVTCVVVDVSQEDPEVQFNWYVDGVEVHNAKTKPREEQFNSTYRVVSVLTVLHQDWLNGKEYKCKVSNKGLPSSIEKTISKAKGQPREPQVYTLPPCQEEMTKNQVSLWCLVKGFYPSDIAVEWESNGQPENNYKTTPPVLDSDGSFFLYSRLTVDKSRWQEGNVFSCSVMHEALHNHYTQKSLSLSLGK chain 2: HGEGTFTSDVSSYLEGQAAKEFIAWLVKGRGGGGGSGGGGSGGGGSEKEKEEQEERTHTCPPCPSHTQPLGVFLFPPKPKDTLMISRTPEVTCVVVDVSQEDPEVQFNWYVDGVEVHNAKTKPREEQFNSTYRVVSVLTVLHQDWLNGKEYKCKVSNKGLPSSIEKTISKAKGQPREPQVCTLPPSQEEMTKNQVSLSCAVKGFYPSDIAVEWESNGQPENNYKTTPPVLDSDGSFFLVSRLTVDKSRWQEGNVFSCSVMHEALHNHYTQKSLSLSLGK | – | – | – | – | – | 44 | 0.402
